{"source": "paper PMC10549240", "about": "(RSC Chemical Biology, 2023)", "binders": {"B1": {"name": "Bio-PepK-StA (peptide)", "peptide": "{Biotin-AEEA}-KIAALKEKIAALKEKIAALKE-NH2", "SMILES": "CC[C@H](C)[C@H](NC(=O)[C@H](CCCCN)NC(=O)COCCOCCNC(=O)CCCC[C@@H]1SC[C@@H]2NC(=O)N[C@@H]21)C(=O)N[C@@H](C)C(=O)N[C@@H](C)C(=O)N[C@@H](CC(C)C)C(=O)N[C@@H](CCCCN)C(=O)N[C@@H](CCC(=O)O)C(=O)N[C@@H](CCCCN)C(=O)N[C@H](C(=O)N[C@@H](C)C(=O)N[C@@H](C)C(=O)N[C@@H](CC(C)C)C(=O)N[C@@H](CCCCN)C(=O)N[C@@H](CCC(=O)O)C(=O)N[C@@H](CCCCN)C(=O)N[C@H](C(=O)N[C@@H](C)C(=O)N[C@@H](C)C(=O)N[C@@H](CC(C)C)C(=O)N[C@@H](CCCCN)C(=O)N[C@@H](CCC(=O)O)C(N)=O)[C@@H](C)CC)[C@@H](C)CC"}}, "key": {"Bio-PepK-StA": {"biological_target": "B1", "experiment": "fluorescence polarisation"}, "activated PepE-Bio": {"biological_target": "activated PepE-Bio (N-terminal acetyl; C-terminal Aoa-Aoa-Lys(biotin)-NH2; glutamate side chains activated with EDC/NHS (NHS esters))", "experiment": "cross-linking"}, "Fluo-PepE": {"biological_target": "Fluo-PepE (fluorescein (5(6)-carboxyfluorescein)-Aoa (8-amino-3,6-dioxa-octanoic acid) on the N-terminus; C-terminal amide)", "experiment": "fluorescence polarisation"}}, "note": "*: point of attachment. Biotin = O=C1N[C@H]2[C@H](CS[C@H]2CCCCC(=O)*)N1; AEEA = NCCOCCOCC(=O)O", "data": [{"binder": "{fluorescein-AEEA}-EIAALEREIAALEREIAALE-NH2", "note": "[PepE(-1C)]", "values": [{"measurement": "binding result", "setting": "Bio-PepK-StA", "result": "binds"}]}, {"binder": "{fluorescein-AEEA}-EIAALEREIAALEREI-NH2", "note": "[PepE(-5C)]", "values": [{"measurement": "fold drop in affinity against full-length PepE", "setting": "Bio-PepK-StA", "result": "~40", "unit": "fold"}]}, {"binder": "{Biotin-AEEA}-KIAALKEKIAALKEKIAALKE-NH2 (SMILES CC[C@H](C)[C@H](NC(=O)[C@H](CCCCN)NC(=O)COCCOCCNC(=O)CCCC[C@@H]1SC[C@@H]2NC(=O)N[C@@H]21)C(=O)N[C@@H](C)C(=O)N[C@@H](C)C(=O)N[C@@H](CC(C)C)C(=O)N[C@@H](CCCCN)C(=O)N[C@@H](CCC(=O)O)C(=O)N[C@@H](CCCCN)C(=O)N[C@H](C(=O)N[C@@H](C)C(=O)N[C@@H](C)C(=O)N[C@@H](CC(C)C)C(=O)N[C@@H](CCCCN)C(=O)N[C@@H](CCC(=O)O)C(=O)N[C@@H](CCCCN)C(=O)N[C@H](C(=O)N[C@@H](C)C(=O)N[C@@H](C)C(=O)N[C@@H](CC(C)C)C(=O)N[C@@H](CCCCN)C(=O)N[C@@H](CCC(=O)O)C(N)=O)[C@@H](C)CC)[C@@H](C)CC)", "note": "[Bio-PepK]", "values": [{"measurement": "binding result", "setting": "activated PepE-Bio", "result": "binds"}]}, {"binder": "B1", "values": [{"measurement": "binding result", "setting": "Fluo-PepE", "result": "binds"}]}, {"binder": "{fluorescein-AEEA}-EIAALEREIAALEREIA-NH2", "note": "[PepE(-4C)]", "values": [{"measurement": "fold drop in affinity against full-length PepE", "setting": "Bio-PepK-StA", "result": "~40", "unit": "fold"}]}, {"binder": "{fluorescein-AEEA}-EIAALEREIAALEREIAA-NH2", "note": "[PepE(-3C)]", "values": [{"measurement": "fold drop in affinity against full-length PepE", "setting": "Bio-PepK-StA", "result": "~40", "unit": "fold"}]}, {"binder": "{fluorescein-AEEA}-EIAALEREIAALEREIAAL-NH2", "note": "[PepE(-2C)]", "values": [{"measurement": "binding result", "setting": "Bio-PepK-StA", "result": "binds"}]}]}
